In article PMC10536585, “Negr1-Derived Peptides Trigger ALK Degradation and Halt Neuroblastoma Progression In Vitro and In Vivo” (Pharmaceutics, 2023):
Entries after “also recorded” stand apart in the source; their conditions may differ.

How the values were obtained:
N-MYC = experiment: Western blotting of N-MYC protein level in treated N2a cells; type: cell-based, murine; conditions: n = 6; for N-MYC protein level (Western blotting), chronic treatment: 100 ng/mL daily for five days
Method: (§1) We assessed protein level and relative phosphorylation by Western blotting as in [31]. Briefly, upon a wash in PBS, we solubilized cells and tumor specimens in lysis buffer (150 mM NaCl, 50 mM HEPES, 0.5% NP40, 1% sodium-deoxycholate). After 1 h under mild agitation, we clarified the lysate by centrifugation for 20 min at 16,000× g. We performed all experimental procedures at 4 °C. We evaluated protein concentrations via Bradford assay (Bio-Rad, Hercules, CA, USA). For Western blotting experiments, we diluted an equal amount of proteins with 0.25% 5× Laemmli buffer. We separated the samples on 10% SDS-PAGE gels and transferred them onto a nitrocellulose membrane (Sigma-Aldrich) at 80 V for 120 min at 4 °C. Primary antibodies were:
Beta-actin (Santa Cruz Biotechnology, Dallas, TX, USA, sc-47778), ALK (Santa Cruz Biotechnology, Dallas, TX, USA, sc-398791), N-myc (Santa Cruz Biotechnology, Dallas, TX, USA, sc-56729), p44/42 MAPK (Erk1/2) (137F5) Rabbit mAb (Cell Signaling Technology, Danvers, MA, USA), Akt (pan) (11E7) Rabbit mAb (Cell Signaling Technology, Danvers, MA, USA), Phospho-Akt (Ser473) (D9E) XP® Rabbit mAb (Cell Signaling Technology, Danvers, MA, USA), S6 Ribosomal Protein (5G10) Rabbit mAb (Cell Signaling Technology, Danvers, MA, USA), and Negr1 (AF5394) Goat polyclonal (R&D system, Minneapolis, MN, USA). Antibodies were applied overnight in blocking buffer (20 mM Tris, pH 7.4, 150 mM NaCl, 0.1% Tween 20, and 5% nonfat dry milk). We detected proteins using the ECL prime detection system (GE Healthcare, Chicago, IL, USA) with the imaging ChemiDoc Touch system (Bio Rad, Hercules, CA, USA). We quantified the optical density of the specific bands with ImageLab 3.0 software (Bio Rad, Hercules, CA, USA).

N2a cells [1] = experiment: MTT assay of N2a cell growth / vitality; type: cell-based, murine; conditions: 5 days; for N2a cellular vitality by MTT assay at DIV5: N2a cells 2 × 10^3 cells/cm^2, 3 μM daily, normalized to vehicle (Lorlatinib) or GFP (rNegr1, PepA-1), n = 10; for N2a cellular growth by MTT assay at DIV5: naive N2a cells seeded at 2 × 10^3 cells/cm^2, 100 ng/mL daily, vs. GFP control, n = 10-12
Method: N2a (Neuro2a, ATCC CCL-131), HEK293 (ATCC CRL-1573), U87 MG (ATCC® HTB14), SKMEL5 (ATCC® HTB70), MCF7 ATCC® HTB-22, A549 ATCC® CCL-185, and SHSY5Y (ATCC® CRL 2266™) cells were grown in DMEM high glucose (Gibco, Thermo Fisher Scientific, Waltham, MA, USA) with 10% FBS, 1% penicillin/streptomycin, and 1% glutamine in a humidified atmosphere of 5% CO2 at 37 °C. In the soft-agar assays, we added 0.6% soft agar (Gibco, Thermo Fisher Scientific, Waltham, MA, USA) in media to 2 × 10^3 cell/cm^2 N2a cells to obtain a final concentration of 0.4% agar. We cultured the cells onto a 0.6% soft agar layer. N2a and HEK293 cells were transfected with the different constructs for 48 h using Lipofectamine 2000 (Invitrogen, Thermo Fisher Scientific Waltham, MA, USA). Stable N2a clones expressing murine Negr1 were isolated upon Neomycin selection (1 μg/mL).
We performed the 3-(4,5-dimethylthiazol-2-yl)-2,5-diphenyltetrazolium bromide (MTT) assay to appreciate culture vitality. We cultured N2a cells in a 96-well plate at a concentration of 2 × 10^3 cells/cm^2. The treatment condition is indicated in the Results Section 3. At the end of the treatment, we added the MTT solution to the cell medium at a final concentration of 0.25 mg/mL. The incubation lasted 30 min at 37 °C. Next, we removed the medium and collected the formazan precipitates in DMSO (200 μL). We measured the absorbance at 570 nm using a spectrophotometer (Varioskan LUX, Thermofisher, Waltham, MA, USA) as a proxy for cell viability. We expressed relative cell viability fold over the control condition.

N2a cells [2] = experiment: Growth of subcutaneous N2a tumors in nude mice; type: in vivo; conditions: 1 million N2a cells s.c. in CD1 nude mice; 2 ug in situ every second day from 100 mm^3 tumor volume; vs. GFP; n = 9 (PepA), n = 5 (PepA-1)
From the text: All procedures involving animals were approved by Institutional and National Agencies (authorization 559/2016-PR).

ALK = target: T1, ALK (Mus musculus, UniProt P97793); experiment: Western blotting of ALK protein level in treated N2a cells; type: cell-based, murine; conditions: n = 6; for ALK protein level (Western blotting), chronic treatment: 2 × 10^3 cells/cm^2 N2a cells, 100 ng/mL daily for five days, fold over GFP
T1 construct: we evaluated ALK and N-MYC protein expression by Western blotting; endogenous in cells; host or cells: N2a (Neuro2a, ATCC CCL-131)
T1 sequence (P97793 19-1621): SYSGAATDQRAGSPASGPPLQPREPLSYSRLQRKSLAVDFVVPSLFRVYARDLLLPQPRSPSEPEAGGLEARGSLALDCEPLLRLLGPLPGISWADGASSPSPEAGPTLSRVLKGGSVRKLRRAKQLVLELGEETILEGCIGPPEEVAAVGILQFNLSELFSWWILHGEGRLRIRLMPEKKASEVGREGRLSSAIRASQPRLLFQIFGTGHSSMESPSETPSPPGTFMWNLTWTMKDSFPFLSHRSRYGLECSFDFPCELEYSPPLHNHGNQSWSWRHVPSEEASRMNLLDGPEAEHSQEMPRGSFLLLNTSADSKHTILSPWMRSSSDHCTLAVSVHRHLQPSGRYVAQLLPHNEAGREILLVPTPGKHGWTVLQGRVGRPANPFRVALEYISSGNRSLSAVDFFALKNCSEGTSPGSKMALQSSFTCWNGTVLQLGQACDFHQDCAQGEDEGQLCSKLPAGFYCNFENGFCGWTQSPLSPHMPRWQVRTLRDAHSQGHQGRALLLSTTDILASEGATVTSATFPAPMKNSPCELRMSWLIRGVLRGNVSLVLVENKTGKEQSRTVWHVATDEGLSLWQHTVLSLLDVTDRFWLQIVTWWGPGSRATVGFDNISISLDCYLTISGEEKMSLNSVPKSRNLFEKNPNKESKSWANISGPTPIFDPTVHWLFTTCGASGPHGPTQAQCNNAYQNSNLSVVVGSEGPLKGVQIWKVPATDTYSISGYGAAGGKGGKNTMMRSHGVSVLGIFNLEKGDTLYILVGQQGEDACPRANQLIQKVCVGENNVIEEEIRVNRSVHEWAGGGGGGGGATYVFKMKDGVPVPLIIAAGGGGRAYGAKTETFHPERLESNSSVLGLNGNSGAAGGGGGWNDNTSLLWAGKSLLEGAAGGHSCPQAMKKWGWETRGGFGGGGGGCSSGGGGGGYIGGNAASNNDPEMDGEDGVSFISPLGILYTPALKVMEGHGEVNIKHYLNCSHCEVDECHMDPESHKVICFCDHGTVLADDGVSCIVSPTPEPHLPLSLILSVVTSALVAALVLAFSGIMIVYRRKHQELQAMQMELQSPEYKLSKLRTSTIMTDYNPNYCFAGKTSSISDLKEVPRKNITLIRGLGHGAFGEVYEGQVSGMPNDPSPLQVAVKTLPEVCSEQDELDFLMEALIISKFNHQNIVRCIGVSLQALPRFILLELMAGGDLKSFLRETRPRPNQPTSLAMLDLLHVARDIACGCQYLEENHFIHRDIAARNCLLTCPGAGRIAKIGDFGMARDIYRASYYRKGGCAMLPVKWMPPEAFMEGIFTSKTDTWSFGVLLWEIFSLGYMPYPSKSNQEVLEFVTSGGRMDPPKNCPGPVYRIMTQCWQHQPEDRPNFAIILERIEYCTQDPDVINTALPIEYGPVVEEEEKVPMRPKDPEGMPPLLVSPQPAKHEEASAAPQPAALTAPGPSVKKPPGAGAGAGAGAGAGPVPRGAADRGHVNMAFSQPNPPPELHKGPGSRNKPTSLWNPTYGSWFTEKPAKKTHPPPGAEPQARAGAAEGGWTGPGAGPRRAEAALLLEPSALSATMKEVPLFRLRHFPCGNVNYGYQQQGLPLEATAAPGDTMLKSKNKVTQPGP
Method: as §1
Antibodies were applied overnight in blocking buffer (20 mM Tris, pH 7.4, 150 mM NaCl, 0.1% Tween 20, and 5% nonfat dry milk). We detected proteins using the ECL prime detection system (GE Healthcare, Chicago, IL, USA) with the imaging ChemiDoc Touch system (Bio Rad, Hercules, CA, USA). We quantified the optical density of the specific bands with ImageLab 3.0 software (Bio Rad, Hercules, CA, USA).

ALK mRNA = experiment: RT-qPCR of ALK mRNA level in treated N2a cells; type: cell-based, murine; conditions: 5 × 10^3 cells/cm^2 N2a cells, 100 ng/mL, 10 min to 6 h; normalized over housekeeping genes; n = 6
From the text: (§2) Total RNA was isolated from cell cultures using a Single Cell RNA Purification Kit (Norgen Thorold, ON, Canada) according to manufacturer’s instruction. After extraction, the RNA concentration was quantified with a NanoDrop 2000C spectrophotometer (Thermo Fisher Scientific, Waltham, MA, USA). After DNAse treatment (Thermo Fisher Scientific, Waltham, MA, USA, according to manufacturer’s protocol), complementary DNA (cDNA) was generated using qRT SuperMix (Bimake). The cDNAs were used for quantitative PCR (qPCR) using iTaq Universal SYBR® Green Supermix and CFX96 RealTime System (BioRad, Hercules, CA, USA) for 40 cycles. We used two independent couples of primers to assess mRNA expression levels (Table 3). All samples were measured as technical duplicates. We calculated mRNA expression levels as the average between the two couple of primers, normalized for the mathematical mean of the relative abundance of actinB and GAPDH (housekeeping genes). Data shown were produced using Bio-Rad CFX Manager 3.1 software and analyzed according to the ddCt method.

N-MYC mRNA = experiment: RT-qPCR of N-MYC mRNA level in treated N2a cells; type: cell-based, murine; conditions: 5 × 10^3 cells/cm^2 N2a cells, 100 ng/mL, 10 min to 6 h; normalized over housekeeping genes; n = 6
From the text: as §2

[3] = 2 × 10^3 cells/cm^2 N2a cells, fold over GFP
[4] = 5 × 10^3 cells/cm^2 N2a cells, 100 ng/mL, 10 min to 6 h, normalized over actin, vs. GFP

Molecule	N-MYC protein level (Western blotting), chronic treatment at 3 μM (N-MYC; 2 × 10^3 cells/cm^2 N2a cells, 3 μM daily for five days, fold over GFP)	N2a cellular vitality by MTT assay at DIV5 (N2a cells [1])	Tumor growth (tumor volume, fold over day 1) (N2a cells [2])	N-MYC protein level (Western blotting), chronic treatment (N-MYC; [3])	N2a cellular growth by MTT assay at DIV5 (N2a cells [1])	ALK protein level (Western blotting), chronic treatment (ALK)	ALK mRNA level (RT-qPCR) (ALK mRNA)	N-MYC protein level (Western blotting), acute treatment (N-MYC; [4])	N-MYC mRNA level (RT-qPCR) (N-MYC mRNA)	ALK protein level (Western blotting), acute treatment (ALK; [4])
C[C@H]1Oc2cc(cnc2N)-c2c(nn(C)c2C#N)CN(C)C(=O)c2ccc(F)cc21 [Lorlatinib, reference compound]	strongly reduced	impaired N2A growth to a similar extent	–	–	–	–	–	–	–	–
VDFPWAAVDNMLVRKGDTAVLRCYLEDGASKGAWLNRSSIIFAGGDKWSVDPRVSISTLNKRDYSLQIQNVDVTDDGPYTCSVQTQHTPRTMQVHL [PepA, Negr1 first Ig domain, strep-FLAG tagged recombinant protein purified from HEK293 cells]	–	–	robust growth reduction	robust reduction	significantly reduced N2a proliferation	robust reduction	–	–	–	–
rNegr1: Recombinant Strep-FLAG Negr1 (murine) expressed in and purified from HEK293 cells (protein, UniProt Q80Z24 32-318, looked up, Strep-FLAG tag, Recombinant Strep-FLAG Negr1 (murine) expressed in and purified from HEK293 cells) Neuronal growth regulator 1: VDFPWAAVDNMLVRKGDTAVLRCYLEDGASKGAWLNRSSIIFAGGDKWSVDPRVSISTLNKRDYSLQIQNVDVTDDGPYTCSVQTQHTPRTMQVHLTVQVPPKIYDISNDMTINEGTNVTLTCLATGKPEPVISWRHISPSAKPFENGQYLDIYGITRDQAGEYECSAENDVSFPDVKKVRVIVNFAPTIQEIKSGTVTPGRSGLIRCEGAGVPPPAFEWYKGEKRLFNGQQGIIIQNFSTRSILTVTNVTQEHFGNYTCVAANKLGTTNASLPLNPPSTAQYGITG	–	impaired N2A growth to a similar extent	–	did not overtly affect	significantly reduced N2a growth; also recorded: significantly reduced N2a proliferation	did not overtly affect	did not notice an overt impact	reduction	light but significant effect	reduction
